The NTF2 design screens of Basanta et al. (2020)

Experiment: protease stability score; higher = more stable; yeast display proteolysis, trypsin and chymotrypsin;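 further: log10 excess protease needed over predicted unfolded state with 0 meaning unfolded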

DQQHTASKVLSDMVKAIQDGDEDHISEQADENVKIRIGDKEYHGKENARRMLKEIQHQVDHISVEVKSVSSHNGRVNVRAEVQMRFNGRSTSYDVTAIFRYNNGQLRLYSVSAR
protease stability score: 0.242

DEQAVNEVEKMWRAIHDGDPERINKMFDPNAKFHIGNKELHGRENFATTMVKEQREIRRRVDIIRMSAHNGRITVRYRVDAEVNGEPYSNDITVSATVHNGKATDFTVHVDEDYLRKFNS
protease stability score: -0.004

DEETRKRVETLLEALETGNPEEISKQIDPNATVVVGDKTLHGREDIRDWVRRQHEKIRVEYKHVQIRIHNGRAHVTFEAVVEVNGKPKTVRAQMVFTVSNGKFQHIELHLDEEWKKMEKG
protease stability score: 1.38

DQEQAEETQKKWQEVVEKGDEKKAKKIYDPNGQWQDADETHQGYEIVIKMMRRAQKKGIEFQVRRAEVEGDRLQVDYDMRLGDKTVTFTVQMEVQGGHVKVVRVEVTEEAKKLLKEG
protease stability score: 1.11

DERNLRVVKHFWHAVRTGDPEEVKRQADKHVRVRIGDKHIEGRETLAHEVREEKNQLENDIQIRDIKVQGDRVHMRVVVVFNIDGRPQSVQITVEAKAHNGKLQSMSQEVPEEVLHEIEK
protease stability score: 0.021

ETEELHKMTELIDNMQRGNPQKFNEMVDPNAQFEVGDKTIRGREELSKELHRKRREMRRSLRSVKVRLSGNHFDIRVTFRETHNGQPDDRRQRIVIIVSNGRIKSVRVDEDG
protease stability score: 0

DDQHQQKFAEEFNKNLEKGDFHRIAQMADENVRVRYGDKSVNGREHMSQFMKELRDRVDHMEIKDFHASNGKITITFVVNVNGKNITLHISIRVSNGRIHEVSLDPDQLKSLES
protease stability score: 2

DEERAAHNALRALEAMLTGDEKKADELADKDVRVNVGDRVYDGDEKMQKFVRELRKRYDHFHFRTYSHDGDKVKANVILNVNGRNVEIIFYLHAHNGKLKSVRVEVRNPELLKNLTS
protease stability score: 1.23

DEEAKKLADEWADAVNKNDEKSLKDLVDPNAKFRVGNQEYHGREQLEEFLSKWMSEWRHSLEDWRVNVQGDTVVLTAKLNVDVNGKPARVDAHVEFVVHNGRIKSQSEQFDEQRLRDNKS
protease stability score: 0.521

DNKDQARRLLNELRKAMKQNDEDRMRQLMDPNARATYGDKTVHGREELAERIIKEVKRADHVDLQVDDIKTQGNKLTVEVTIRIDVNGKTINTRYVLYAEVSNGRFNIRQIHQQ
protease stability score: 0.544

DEEEVKQAIDRWEQGDPDQLKELVDENAHMVIGDKRLHGRETFEKMIKNLMDQADHITIESVEVQGDKAVMDVVANFNGKTVRYEVEIRIQNGQIKYLQINVTNEHDEHRFDQWLG
protease stability score: 1.16

DREEVRQVDQWMKNQQRNNPDELVKLADPNVEFRIGDKTVHGMRRYADDVRRKREHIRLEFKHMKIEDQNGRVILRAKAQREHNGKPETFTMQITFEAHNGRIKKAVITTQK
protease stability score: 0.044

DDEKRASKFAKKLVDAFKHGDPDRFSRMVDENVRFQVGDTQYHGREDAHNLMQELRDKVDHIHVRLTQLEVKGDKADVHMNLQYKHNGKNNDVRMRAVATDNNGRLLVTHFRIN
protease stability score: 1.26

DEEKLEKFARNFEKVVERGDEDKFRSQADPNVQAVIGDKRIHGDEHLAHWMNKLRSHIDHFRVVDMRVQGEEIHLDVKFVVDGRRVRFIIEIEVHNGHITRFTVHVTDEEKWRRREK
protease stability score: 0.335

DEEEDNELAKRAAKAMSTNDEDQVENLVDKDVRLEVGDKTYTGDEQVRSAIQEFRRRADHVKVNKLKVEDGQANLRFTVNWNGVELDMVIHVKATNGKIKTVTIKVRDPEQERRFKS
protease stability score: 0.024

DHRALSQVEQFMNALQQGDEKRLMELADPNVKIIIGDKDVHGREEWDRQVHKRRHEIQYEVRRVKMHVNGDTVHVKIRAVATINGKPFEVEYTANFKIDNGHITHIDWQLPDEYLKRVKS
protease stability score: 0.062

DEKRYKELADKAFKYIVNGNEEQAIKMLKPNVRYEYVDKEMKGEEAAKEIVQLMQKVGAKVETQEKEVHGDTMRAVFQYHDGDTTVQTTAEVVYKGDKVEKVRVEISEEVKKIVERG
protease stability score: -0.265

DEQEQAKDFARQLQKVFRYGDEERARQLADKHVKVNVGDKIFHGREKVQKWIREIKNRSDKYKIDIKSIRVKNGRITIEFKAQEEFNGERRRVTVNAKAKLDNGEIRLTSVDQK
protease stability score: 0.128

DHEIRHFAEQVVRVLNTGDEEEIEKLFDPNARITVGDKSYHGMDDYARKVKQTRDEMRFTIDVKDLKVSGDSVSMRAHVVHDHNGTPQKDTEQREFRVQGDRVKHMDVKSDG
protease stability score: -0.395

DEDVKRMIEDFIEAEKKNNPRQLKKNADPEAEADVGDTKVHGMDHFAREVKKRMDQMRVSVDYKSITVDGNTIKAKARVSENHNGRPKHNTATLEFRAHNGRIKEIRHHEDK
protease stability score: -0.332

DENAQKLAREFMHAVREGNPEEIKKQVDPNAKMVVGDKEITGREEMSRQRERELREIEIDYRSVRVDVSGDKAKLDIKFERNDNGKPQQQQQTMTFVHQGDKIKHLVIKQHS
protease stability score: -0.373

DEKRVKELADKIFKDIINGNEEVVRKLGDPDVRYEYLDKKFRGEEAMIFIVQVVKRVGAEVKVERKEVRGDTAKADFRYRKGDTEVKTTAEVIYEGDKLKEARVHLTDEVKKVMTQG
protease stability score: -0.006

EEEAAHQFNKWLSLMKHGNEHKASEMLDKDAHIKVGDKTLQGREDVQRDVRRRKEELKFSMTIVDYKDHGDKARLTVEQTNDHNGRPRTRRANVTVHVSNGRVKEIVINDDS
protease stability score: -0.265

DEENRHAAEQYLTALRTGDEEQLKKNADPNVRVQVGDKQWTGMERYAHDQVRQLKEIHIEIKVDDIKVSNGEVDMKAERNSNHNGKPSRNRASLTIVVHNGKIQEIHWQEDS
protease stability score: -0.47

DEEEKAREYNKTIRQVWHDNNEEDMMRLADENARLEYGDKQLHGRENFRKRQHDIHRRVDKVDVDVKRVEVHNGKFKAQFTFTLVSNGENNKRLYILVAQLHGDKFRIKQIVEQ
protease stability score: 0.099

DQDQMRKAEQAMRAEQKNNKEELDELFDPNVEVEVGDFNVEGREEMNKEVDDLKKQARFHWSLHHVEVRGNRMHFKLRFEIQVNGQPRKNTANVEIEAHNGKFTSKTNRIDPRFVKTLLG
protease stability score: 0.55

DESKVNEIVQKFVNAVREGNENHLRSLMDKDVTLHVGDRTWHGREQVASFMAHVAKRVDRIRIVHIEIHGDKANVNVRFDVNGTEVQLTMDIRIKNGRIMKIHMSPEDEKKLQG
protease stability score: 1.76

DEEDVRRMENVVRENNEHRLAQLADKNARMTVGDQTYHGKEKIAEAIRRVQKQVDHMEIERLTIHGDKIRADVTMVVNGQRFRYVVVFNVKNGRLKERSVNFRDERDSEEFKKIEK
protease stability score: 0.021

DEEKEETTVEKLAKAVNTGDPDQIEDLADKDVRATIGDRQVHGREEMDRNMKEWEDKIDHLELKSVDVQGESAHANLDQRHNGRHVRMVAIAHVENGRAVEVVFRDQ
protease stability score: -0.157

DDEVKKEAEKMVEIIMHGDPDKVRNQFDPNAKMQIGDKELHGQEQLRDHLKRMNDHLRIDLKSVSARLDGNHIHLDVLFVKEHNGKPEEQRVEFVADIHNGKIVSASVEHVD
protease stability score: 0.54

DEEAEKRFEELMENRKTGNEHDVSEYADPNVTARIGDHEVRGREQLHDLQRKEKEEMRVDIKDYRLDFNGDTVRVEVHLEDEHNGRPRDRHQSNSFRWQNGKLKELHIRSDK
protease stability score: -0.353

DEDAERHVTEMIHAYKHNNPEKVQTYMDKHVKIKVGDKTVKGREERAKELRKQKDQMRVDYDVHSMNVKGDKITARLRVDITVNGQPHTFEYHLIVKWTNGKIQELSVEFPEEDQKKQSR
protease stability score: -0.086

EDTALKIARTLFDILESNNPDEFNKLADPNARVDVGDKKIHGREEIKKQMETEIQQLRVHYEIKRYDSRPNRAHVIADVEVNHNGQPQSHKLVMRLHFKNGKVTEIKFEYRK
protease stability score: -0.053

DEQENKEIMRRVKEAFEHNDPDMFKKLFDEDATVEVGDKSFQGRDKIKEAMTQFKNQADRVRVDSVNVRGNKVDATVTADFNGKTASFKLEITWHNGKIKHMRINPEDNKKLQG
protease stability score: 0.951

DEEVLDFVKTMIKVEETGDEEKLKEMFDKNVKARVGDKKYHGMDHQARTIRKERESIKFKIKSITMRYKDGRVHASARVVRHENGKPDEYRETYVLQIHNGKVKTYSKQTDS
protease stability score: -0.188

DEQKDAERAIEALRVMLQGDDDSVRKMVDPNATLTVGDTEYKGREEFVKYARTLRRRADHFRIDTVHVEGDTAVMQAQVNVNGKTKTIRINVRAHNGRVVHVHVDPDQLKRIES
protease stability score: 0.831

DESQLELVKELLDVLQTGNPDEARQLVDKDVNIRIGDRVIHGREQLQSHVEKVKREQQVHVNITDMKVKGDKIKVVAQYKNHHNGQPSHNKMVLDAEVNGDKIHRMEYKSQS
protease stability score: -0.453

EEKIVDILERMVTALHTGDPDTVHENLDPNAHVVIGDKEFTGMDTMHRTLERQKKEIRIQINSYSVHAQGNKADIDIDMVNEHNGHPDRNRYRVDAKVHNGKIKQVRYEEVS
protease stability score: -0.38

DDDHATEIAKRMIDNFTTGNEENVKRLVDPNATVRIGDKRFHGRDHIRDAIRQIKERIDHIQVRTFTAHNGRIRITAEVKINGQSKEIHIELRIHNGHVVFFQLNVRNEEEWKTALS
protease stability score: 1.05

DEEDLHNALNAWKAFNTGDPDRAVQLADPNVNVVIGDKHVHGREQLSHEIKRVRHESNVQVRHVNNDNQGEKAKVQAEMVDTQNGQPRTFTVDIDVRAHNGKLKEVKVQEQD
protease stability score: -0.322

DDQKNLEKWVRDFQEVNKTGDPDRFRNLFPPNAEMTIGDKTIKGSETVREYMEHLVNRYDHLDVQVESIHAEGDKLTVKLRLVFNTNGKNDQYVNKVLLDDHNGRLKAHEVHQE
protease stability score: 0.7

EEENFNRANEFMKAVETNDPDKLKHNADENVQITYGDKSYQGRESWAKDLQRKLKHMRWRYEFKSYHDTGDSVDVSLRVMATVNGKPRDFHLRMIIHFKNGKIKNIELRLDPDELDKLES
protease stability score: 0.648

DEEDNTRLVNLFEHNDWDTIADQADPEAQLVIGDKTYTGREEVKKALSTLVERVDRIEFKRFDVHGNKIHVKMELRFDGRNIELVMRITIKNGRIKSIKIRARDKEVEKILKEMHS
protease stability score: 1.22

DERKSAENFFHTLVKVMETGDEDKARKMFDENADAEVGDTEYHGREQLSKYMMTLVKNIDHIRLDLRDMHIEGDKIDIHADVEYRVNGQRTTNKLTVDVEIDNGRNKAQDIKFK
protease stability score: 0.214

DEQKQRDFAHTYKDVFNTGDPDEQRKMVDPNARAQVGDNDFHGDEEFDKWAEERRDRVDHVEIRSMSVHGNKVSMDVDVVYDGRRVRFSMRMEYHNGRFKHFKVNPDSQRKLEG
protease stability score: 0.615

DEEVVRQIEDNLNAQRRNDHEKLKENMDPNATVNVGDKQIHGMSQFAQHVRDMFRHIRRSIKDFRIEVRPNHANVDVKFEVNINGKPESMSANVSVRVTNGTVQEMTIRVDPEHVKRIRR
protease stability score: 0.816

DEKKLKDKAETLVENFKTGNEEEFSRMADENATLVVGDKTLRGREDLQTFISEFKKTVDHVEVRHVTADNGRVTIDMVVDINGRRVRVHVVIKFKNGHIKDVRVDPRMKRAMDQ
protease stability score: 0.905

DEEAEKELRKMFQNENKGNPNEVMKQFDKHARVKVGEKEIRGRHQVHNYVDHVRKEMRRQIDSMSLEVHGNKLIVHITYVADINGHPVRVQVQYIIQFHNGKIKEVKVKIDEDEKRRMDQ
protease stability score: 0.385

DEERVNDIAHKIAQNLRTNDEEQLVRMMDENAKVTVGEHRIDGREQIRTMWHKIKQHVDHVEVKHVEARGDRIRIIIVLNHNGRQRTIVMYVSIHNGHIKVLKIESQ
protease stability score: 1.51

DQTALKVFKEYLEVVLNGDEHEAVELVDKDVRMNVGDKRWHGQEHIEREIRNQTRHSRLDYDHVRFEDDGDKAVFKRTVRFTHNGKPDSSRNVMHATADNGRIKSMKVEDDR
protease stability score: -0.334
